# Results published in patent publication US20060073508.
# Test system: hemagglutinin epitope-tagged Del301-303 human alpha-2B adrenergic receptor
substance,measurement,value
GRK2 (βARK1),agonist-promoted phosphorylation relative to wild-type,the Del301-303 receptor displayed -56% of wild-type phosphorylation
same,basal phosphorylation of the receptor,Basal phosphorylation was equivalent between the two receptors.
